Assay [1] deals with cell-surface HLA-A1 on Hmy2.C1R-A1 transfectants with ornithine decarboxylase 309-317 (OD 309) peptide (human). The assay can be described thus: competition with 2.5 µM myc-hβ2m on Hmy2.C1R-A1 cells with OD 309 peptide, 9E10 anti-myc, flow cytometry. For orientation: Flow cytometry measures light scatter and fluorescence of single cells or particles in a stream.
Assay [2] addresses cell-surface HLA-A2 on Hmy2.C1R-A2 transfectants with HIV gag 77-85 peptide (human; HIV), A*02:0.
The target of assay [3] is cell-surface HLA-A3 on Hmy2.C1R-A3 transfectants with pn2a.A3 peptide (human).
Assay [4] has the same target. The source holds these as a separate data set.
Assay [5] concerns the target cell-surface HLA-A1 on Hmy2.C1R-A1 transfectants with ornithine decarboxylase 309-317 (OD 309) peptide (human). The assay can be described thus: HLA stabilization assay, acid-stripped Hmy2.C1R-A1 cells with OD 309 peptide and BB7.5 mAb, flow cytometry.
The target in assay [6] is cell-surface HLA-A2 on Hmy2.C1R-A2 target cells with HTLV-1 TAX 11-19 peptide (human; HTLV-1), A*02:0. The assay can be described thus: cell-based or functional assay.

Take “hβ2m S55V (human β2-microglobulin with valine at position 55) (from UniProt P61769 21-119)”: the fold better inhibition of myc-hβ2m binding than wild-type hβ2m at a molar level in assay [1], in assay [2] and in assay [3] was 2.5 fold throughout. The fold better stabilization than wild-type hβ2m at a molar level came to 3 fold in assay [4] and 2 fold in assay [5]. The enhancement of target cell lysis, fold more effective at a molar level than wild-type hβ2m in assay [6] worked out at 4 fold.
In the case of “wild-type human β2-microglobulin (hβ2m), recombinant (from UniProt P61769 21-119)”, in assay [6], the hβ2m concentration giving maximal lysis by the TAX-specific CTL clone stood at 8 µM.
